B1: PeiW (Methanothermobacter phage psiM100) (protein)
chain: MEVGLNEFLDMKKRYEDFKMKNKREPRYVTTKNGYKVMLPVFKDMLRRYEDFVRINGREPNYISIQPQPNGKIEIKKFRDMLRRYEDFVRINGREPNIIYLEQGKSDHVSLGTFKDMLRRYKDFVRINGREPNYISIQPQPSLKGHWTTKVIEKIGTFHDATSLYERVKKTCKYKYYYNDQVPNHVAVMRMTTSGINCTDACQLFSKVLEEMGYEVKIEHVRVKCNDGKWYGHYLLRVGGFELKDGTIWDYVSATKTGRPLGVPCCTAGFQHLGWGIVGPVYDK
notes: N-terminal His-tag kept, pET151D, E. coli BL21-Rosetta 2; 317 residues and 37,219 Da with tag; monomer
B2: PeiP (Methanobacterium phage psiM2) (protein)
chain: MRSNSVNIETFKDMLKRYEDFKMKNKREPRVIFIRSGGGESIPLETFRDMVRRYNNFKDRYGREPRIVYVTPPEPPVPEVNENTPEYVSITQFKDMLSRYNRFKEVNGREPRVVFIYSGGGPSVSLETFKDMCKRYNQFLEENRREPRIVYVTPPEPPVPEEVREMRRVLGEFKTATQLYTLVSRRCKYKFYYNDQTPNREALKKMVTDGINCTDACQLFKPVIEGLGYSVRIEHVKVRCNDNKWYGHYFLRVAGKELASVSLPSERWTVWDYVSATKTGRPLGAPCCSRGIQHLGWGIVSPKHD
notes: N-terminal His-tag kept, pET151D, E. coli BL21-Rosetta 2; 338 residues and 39,537 Da with tag; monomer

How the values were obtained:
purified protein [1] = substrate: C[C@H](NC(=O)CC[C@H](N)C(=O)O)C(=O)Nc1ccc([N+](=O)[O-])cc1; assay: purified protein; format: biochemical, Methanothermobacter phage psiM100; settings: 60 °C, pH 7.85 Bistris propane, 10 mM CaCl2, 10 mM TCEP, aerobic, substrate range limited to about 1 x Km
purified protein [2] = substrate: C[C@H](NC(=O)CC[C@H](N)C(=O)O)C(=O)Nc1ccc([N+](=O)[O-])cc1; assay: purified protein; format: biochemical, Methanobacterium phage psiM2; settings: 60 °C, pH 7.85 Bistris propane, 10 mM CaCl2, 10 mM TCEP, aerobic, substrate range below Km

| Protein | Km (purified protein [1]) [mM] | kcat (purified protein [1]) [s⁻¹] | Km (purified protein [2]) [mM] | kcat (purified protein [2]) [s⁻¹] |
| --- | --- | --- | --- | --- |
| B1 | 6.25 ± 0.44 | 5.73 ± 0.22 |  |  |
| B2 |  |  | 4.14 ± 0.14 | 1.18 ± 0.03 |

Source: publication PMC4592898, “Biochemical Characterisation of Phage Pseudomurein Endoisopeptidases PeiW and PeiP Using Synthetic Peptides” (Archaea, 2015)
